Experimental data as given in publication PMC9065035, “Structural basis for the synthesis of the core 1 structure by C1GalT1” (Nature Communications, 2022).
Values belong to the substance of their own block, whether it stands above or below them.

Assays:
[1] = target: DmC1GalT1^T43-Q388 (Drosophila melanogaster C1GalT1, residues T43-Q388) (Drosophila melanogaster); experiment: ITC; under an excess of UDP: 2 mM (glyco)peptide titrated into DmC1GalT1^T43-Q388 (60 µM for APDT*RP and APDTRP, 50 µM for P4/P7); 20 °C; 25 mM TRIS pH 7.5, 150 mM NaCl, 1 mM UDP, 1 mM MnCl2; one-site model; duplicate
[2] = target: Drosophila melanogaster C1GalT1, residues T43-Q388 (DmC1GalT1^T43-Q388) (Drosophila melanogaster) (UniProt Q7K237); experiment: ITC; 2 mM glycopeptide titrated into the enzyme (60 uM for APDT*RP, 50 uM for P4/P7); excess of UDP: 25 mM TRIS pH 7.5, 150 mM NaCl, 1 mM UDP, 1 mM MnCl2; 20 °C; one-site model; duplicate
[3] = target: DmC1GalT1^T43-Q388 (Drosophila melanogaster C1GalT1, residues T43-Q388) (Drosophila melanogaster) (UniProt Q7K237)
[4] = target: DmC1GalT1^T43-Q388 (Drosophila melanogaster C1GalT1, residues T43-Q388) (Drosophila melanogaster) (UniProt Q7K237); experiment: ITC; with an excess of UDP: 2 mM (glyco)peptide titrated into 60 μM (APDT*RP, APDTRP) or 50 μM (P4/P7) enzyme; 25 mM TRIS pH 7.5, 150 mM NaCl, 1 mM UDP, 1 mM MnCl2; 20 °C; one-site model; low Wiseman c (c < 1)
[5] = tested on: CC(=O)N[C@H]1[C@@H](O[C@H](C)[C@H](NC(=O)[C@H](CC(=O)O)NC(=O)[C@@H]2CCCN2C(=O)[C@H](C)N)C(=O)N[C@@H](CCCNC(=N)N)C(=O)N2CCC[C@H]2C(N)=O)O[C@H](CO)[C@H](O)[C@@H]1O; experiment: purified protein, by the assay type; details: 500 µM UDP-Gal, 37.0 °C
[6] = tested on: CC(=O)N[C@H]1[C@@H](O[C@H](C)[C@H](NC(=O)[C@H](C)NC(=O)[C@H](C)NC(=O)[C@@H]2CCCN2)C(=O)NCC(=O)N2CCC[C@H]2C(=O)N[C@@H](Cc2ccc(O)cc2)C(N)=O)O[C@H](CO)[C@H](O)[C@@H]1O; experiment: purified protein, by the assay type; details: other: acceptor substrate varied (P1–P7 12.5–500 µM; APDT*RP/APDS*RP 12.5–1000 µM; α-O-methyl-GalNAc up to 2 mM), 500 µM UDP-Gal, 500 nM enzyme, 25 mM Tris pH 7.5, 150 mM NaCl, 50 µM MnCl2, 1 mg/ml BS, 37.0 °C
[7] = tested on: CC(=O)N[C@H]1[C@@H](O[C@H](C)[C@H](NC(=O)[C@H](CC(=O)O)NC(=O)[C@H](C)NC(=O)[C@@H](N)Cc2ccc(O)cc2)C(=O)NCC(=O)N2CCC[C@H]2C(=O)N[C@@H](Cc2ccccc2)C(N)=O)O[C@H](CO)[C@H](O)[C@@H]1O; experiment: purified protein, by the assay type; details: other: acceptor substrate varied (P1–P7 12.5–500 µM; APDT*RP/APDS*RP 12.5–1000 µM; α-O-methyl-GalNAc up to 2 mM), 500 µM UDP-Gal, 500 nM enzyme, 25 mM Tris pH 7.5, 150 mM NaCl, 50 µM MnCl2, 1 mg/ml BS, 37.0 °C
[8] = other: acceptor substrate varied (P1–P7 12.5–500 µM; APDT*RP/APDS*RP 12.5–1000 µM; α-O-methyl-GalNAc up to 2 mM), 500 nM enzyme, 25 mM Tris pH 7.5, 150 mM NaCl, 50 µM MnCl2, 1 mg/ml BS

- Kd [1]: 174 µM
- stoichiometry N [1]: 0.88
Substance: APDT*RP glycopeptide (* = GalNAc on the Thr)

- Kd [2]: 173 µM
Substance: APDT*RP glycopeptide (GalNAc on Thr)

- Km^app of the glycopeptide as acceptor substrate (UDP-Glo glycosylation kinetics, 500 nM enzyme, 500 μM UDP-Gal) [3]: 195 µM
- fold by which UDP binds the enzyme more strongly than this peptide [4]: 9.5 fold
- stoichiometry N [4]: 1
Substance: APDT*RP glycopeptide (MUC1 tandem repeat epitope with alpha-GalNAc on Thr)

Substance: DmC1GalT1^S73-Q388 (Drosophila melanogaster)
- Km ([5]; other: construct S73-Q388 (Hi5 cells), APDT*RP varied 12.5 µM–1 mM, fit ± standard error, n = 2, pH 7.5): 322.6 µM

Substance: DmC1GalT1^T43-Q388 (Drosophila melanogaster)
- Km [6]: 50.06 µM
- Km [5, 8]: 195 µM
- kcat [5, 8]: 0.0583 s⁻¹
- Km [7]: 139.6 µM
